The values that follow come from patent US20070141052A1.

Experiment [1] has as its target biotin-labeled soluble FcRn. Nature of the experiment: ELISA: biotinylated soluble FcRn on NeutrAvidin plate, IgG supernatant at pH 6.0, anti-human Fab-HRP detection. Conditions: scale: % of wild type.
Experiment [2] concerns the target biotin-labeled soluble FcRn. Nature of the experiment: ELISA: biotinylated soluble FcRn on NeutrAvidin plate, IgG supernatant at neutral pH, anti-human Fab-HRP detection. Conditions: scale: % of wild type.
The target of experiment [3] is soluble human FcγRIIb (human) (UniProt P31994). Put plainly: antigen-capture ELISA as for Tables 3-5 but with an anti-TNFα parent IgG; biotinylated soluble human FcγR; normalized to parent.
Experiment [4] concerns the target soluble human FcγRIII (human) (UniProt P08637). Described as above.
The target in experiment [5] is soluble human FcγRIIb (human) (UniProt P31994). Put plainly: antigen-capture ELISA: IgG captured on PSA-coated plate, biotinylated soluble human FcγR, NeutrAvidin-AP; background-subtracted, normalized to parent.
The target of experiment [6] is soluble human FcγRIIa (human) (UniProt P12318). Described as above.
The target in experiment [7] is soluble human FcγRIII (human) (UniProt P08637). The description is as above.

Sequence of UniProt P31994 (P31994 43-217): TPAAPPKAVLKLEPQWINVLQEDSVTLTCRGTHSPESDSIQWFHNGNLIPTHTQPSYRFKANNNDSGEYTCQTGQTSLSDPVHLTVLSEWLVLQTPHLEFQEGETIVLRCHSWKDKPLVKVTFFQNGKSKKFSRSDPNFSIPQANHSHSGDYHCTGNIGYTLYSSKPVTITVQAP
Sequence of UniProt P08637 (P08637 17-208): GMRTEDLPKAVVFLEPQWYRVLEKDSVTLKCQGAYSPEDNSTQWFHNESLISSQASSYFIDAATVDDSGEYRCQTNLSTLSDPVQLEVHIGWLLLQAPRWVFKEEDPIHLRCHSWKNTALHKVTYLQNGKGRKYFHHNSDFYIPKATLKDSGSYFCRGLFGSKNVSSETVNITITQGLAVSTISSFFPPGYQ
Sequence of UniProt P12318 (P12318 34-217): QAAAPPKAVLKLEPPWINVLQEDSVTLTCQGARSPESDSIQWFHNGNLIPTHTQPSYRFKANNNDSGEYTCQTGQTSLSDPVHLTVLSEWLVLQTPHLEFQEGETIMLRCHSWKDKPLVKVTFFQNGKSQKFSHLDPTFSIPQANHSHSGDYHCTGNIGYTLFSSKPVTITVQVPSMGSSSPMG

“anti-CD20 IgG Fc variant D280A (antibody)”: in experiment [1], the FcRn 6.0 was 71. The substance further yielded a FcRn 7.0 in experiment [2] of 51.

Regarding “anti-CD20 IgG Fc variant D280T (antibody)”, the FcRn 6.0 in experiment [1] is 82. The FcRn 7.0 in experiment [2] was determined as 23.

As for “anti-CD20 IgG Fc variant K290V (antibody)”, in experiment [1], the FcRn 6.0 was 149. In experiment [2], the FcRn 7.0 was determined as 73.

Regarding “anti-CD20 IgG Fc variant K290N (antibody)”, in experiment [1], the FcRn 6.0 turned out to be 130. In experiment [2], this substance showed a FcRn 7.0 of 17.

Take “anti-TNFα IgG Fc variant D280Y (antibody)”: the relative FcγRIIb (relative to parental antibody (=1.0)) in experiment [3] is 2.14. In experiment [4], the relative FcγRIII (relative to parental antibody (=1.0)) came out at 1.23.

With “anti-PSA IgG Fc variant Q295L (antibody)”, the relative FcγRIIb (relative to parental antibody (=1.0)) in experiment [5] was determined as 1.34. Besides, in experiment [6], the relative FcγRIIa (relative to parental antibody (=1.0)) came to 1.44. In experiment [7], the relative FcγRIII (relative to parental antibody (=1.0)) was 1.06.

“anti-TNFα IgG Fc variant K290G (antibody)”: the relative FcγRIIb (relative to parental antibody (=1.0)) in experiment [3] worked out at 1.46. In addition, the relative FcγRIII (relative to parental antibody (=1.0)) in experiment [4] is 1.64.

“anti-PSA IgG Fc variant Y300I (antibody)”: the relative FcγRIIb (relative to parental antibody (=1.0)) in experiment [5] is 1.26. Besides, the relative FcγRIII (relative to parental antibody (=1.0)) in experiment [7] was 1.38.

For “anti-PSA IgG Fc variant S298D (antibody)”, in experiment [5], the relative FcγRIIb (relative to parental antibody (=1.0)) turned out to be 0.188. The relative FcγRIII (relative to parental antibody (=1.0)) in experiment [7] is 2.31.

Regarding “anti-PSA IgG Fc variant S298V (antibody)”, the relative FcγRIIb (relative to parental antibody (=1.0)) in experiment [5] amounted to 0.592. Further, the relative FcγRIII (relative to parental antibody (=1.0)) in experiment [7] came out at 2.8.

Consider “anti-CD20 IgG Fc variant D280K (antibody)”, for which the FcRn 6.0 in experiment [1] was 145. Further, the FcRn 7.0 in experiment [2] was 131.

As to “anti-PSA IgG Fc variant Y300L (antibody)”, the relative FcγRIIb (relative to parental antibody (=1.0)) in experiment [5] came out at 1.36. In addition, in experiment [7], the relative FcγRIII (relative to parental antibody (=1.0)) amounted to 1.81.

As to “anti-TNFα IgG Fc variant D280Q (antibody)”, the relative FcγRIIb (relative to parental antibody (=1.0)) in experiment [3] worked out at 0.87. For the same substance, the relative FcγRIII (relative to parental antibody (=1.0)) in experiment [4] is 1.19.

On to “anti-PSA IgG Fc variant S298N (antibody)”, for which the relative FcγRIIb (relative to parental antibody (=1.0)) in experiment [5] is 0.363. In addition, in experiment [7], the relative FcγRIII (relative to parental antibody (=1.0)) stood at 1.42.

Turning to “anti-PSA IgG Fc variant Q295K (antibody)”, the relative FcγRIIb (relative to parental antibody (=1.0)) in experiment [5] worked out at 0.892. Moreover, the relative FcγRIII (relative to parental antibody (=1.0)) in experiment [7] was 1.47.

“anti-TNFα IgG Fc variant K290S (antibody)”: the relative FcγRIIb (relative to parental antibody (=1.0)) in experiment [3] turned out to be 1.4. Besides, in experiment [4], the relative FcγRIII (relative to parental antibody (=1.0)) was found to be 1.23.

In experiment [1], “anti-CD20 IgG Fc variant D280H (antibody)” displayed a FcRn 6.0 of 91. Also, the FcRn 7.0 in experiment [2] worked out at 90.

In experiment [1], “anti-CD20 IgG Fc variant K290P (antibody)” came in with a FcRn 6.0 of 146. The substance further showed a FcRn 7.0 in experiment [2] of 34.

On to “anti-TNFα IgG Fc variant D280H (antibody)”, for which, in experiment [3], the relative FcγRIIb (relative to parental antibody (=1.0)) was determined as 0.92. For the same substance, the relative FcγRIII (relative to parental antibody (=1.0)) in experiment [4] stood at 1.24.

As to “anti-CD20 IgG Fc variant K290T (antibody)”, the FcRn 6.0 in experiment [1] came to 148. The FcRn 7.0 in experiment [2] was 8.

With “anti-PSA IgG Fc variant E294N (antibody)”, the relative FcγRIIb (relative to parental antibody (=1.0)) in experiment [5] came out at 0.672. Further, the relative FcγRIII (relative to parental antibody (=1.0)) in experiment [7] was found to be 1.14.

Substance “anti-CD20 IgG Fc variant D280N (antibody)” displayed a FcRn 6.0 in experiment [1] of 93. In experiment [2], this substance came in with a FcRn 7.0 of 61.

Turning to “anti-CD20 IgG Fc variant K290D (antibody)”, the FcRn 6.0 in experiment [1] was 154. This substance had a FcRn 7.0 in experiment [2] of 25.
